Measured values as given in PMC10845952, “Mass spectrometry and split luciferase complementation assays reveal the MecA protein interactome of Streptococcus mutans” (Microbiology Spectrum, 2024).

T1: MecA fused to the RenG N-terminal domain (1-155) (S. mutans, UniProt Q8DW33 1-240)
T1 construct: adaptor protein MecA; S. mutans UA159; source: S. mutans, expressed in live cells; not shown: RenG luciferase N-terminal domain (1-155), C-terminal, kept
T1 sequence: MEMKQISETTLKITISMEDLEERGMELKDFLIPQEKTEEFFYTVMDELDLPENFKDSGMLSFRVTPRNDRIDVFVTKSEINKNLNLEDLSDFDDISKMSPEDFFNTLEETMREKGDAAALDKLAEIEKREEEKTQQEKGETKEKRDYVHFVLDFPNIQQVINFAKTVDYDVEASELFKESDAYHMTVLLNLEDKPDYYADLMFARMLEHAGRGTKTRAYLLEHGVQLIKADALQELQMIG

B1: UvrA fused to the RenG C-terminal domain (156-314) (natural protein, S. mutans, UniProt P72481 1-943, looked up)
chain: MQDKLIIRGARAHNLKNIDVEIPRDKLIVMTGLSGSGKSSLAFDTIYAEGQRRYVESLSAYARQFLGNMDKPDVDSIDGLSPAISIDQKTTSKNPRSTVGTVTEINDYLRLLYARVGIPYCKNGHGAITASSVEQIVDQVLILPERTRMQILAPVVRRKKGQHKAVFDRIQKDGYVRVRIDGDIMDVAEVPELSKNKMHNIEVVVDRLVQKDGIRGRLFDSIEAALHLGDGYVIIDTMDDHELIFSEHYSCPVCGFTVPELEPRLFSFNAPFGSCPTCDGLGIKLEVDLDLVIPDENKTLREGTLAPWNPISSNYYPQLLEQAMNAFGVDMDKPWKDLSDEDKKLVLHGSGDTAFHFHYQNDFGGVRDIDIPFEGIISNISRRYHETNSDFTRNVMRSYMNELPCATCHGYRLNDQALSVRVGGKEGLNIGQVSELSIADHLSLLTHLELSENEKTIATPIVKEIKDRLTFLNNVGLNYLTLSRSAGTLSGGESQRIRLATQIGSNLSGVLYILDEPSIGLHQRDNDRLISSLKKMRDLGNTLIVVEHDEDTMMAADWLVDVGPGAGALGGEIVASGTPRQVAKNKKSITGQYLSGKKKIPVPLDRRKGSGRFIEIKGAAENNLQNINVKFPLGKFIAVTGVSGSGKSTLVNSILKKVIAQKLNRNSEKPGKYKSISGIEHIDRLIDIDQSPIGRTPRSNPATYTGVFDDIRDLFAQTNEAKIRGYKKGRFSFNVKGGRCEACSGDGIIKIEMHFLPDVYVPCEVCHGTRYNSETLEVHYKDKNIAEILNMTVNDAAEFFAPIPKIARKIRTIKDVGLGYVTLGQPATTLSGGEAQRMKLASELHKRSTGKSFYILDEPTTGLHTDDIARLLKVLERFVDDGNTVLVIEHNLDVIKTADHIIDLGPEGGVGGGQVIATGTPEQVAEMTESYTGQYLKGRLNEK
notes: Excinuclease ABC subunit, UvrA; S. mutans UA159; not shown: RenG luciferase C-terminal domain (156-314), C-terminal, kept
B2: DnaG with the RenG C-terminal domain (156-314) fused to its N-terminus (natural protein, S. mutans, UniProt Q8DUS6 1-592, looked up)
chain: MVVDKEKIKEIKDSINIVDVIGEVVSLSRSGRNYLGLCPFHKEKTPSFNVIEDRQFFHCFGCGRSGDVFKFVEDYRNISFLESVQVLAERSGINVTLQDKSQEVKKEHPHQKLFNINGDANKFYQAVLKTTKVGETARQYLYERGLTDELITYFKIGLAPNEYDYLYQAMLKKYDEDTIINSGLFNLSDSNSIYDAFRNRIMFPLTDEFGHIIGFSGRIWTEEDTSKKLAKYKNTRSTIIFNKSYELYHLDKARTAAKKEHELYLMEGFMDVIAAYRAGIPNAVASMGTALTPEHVKHLRKFTKKVILTYDGDKAGQNAIAKSLNLLSNMAVEIVRIPGQMDPDEFIKENSEEELEKLLKQARISSAEFWIEHLKPENIDNLQAEIDYVEKIAKVIAASPSITAQNTYINKVAEFLPDFDYLQVEQAVNNERLQMRSQISEQESANQQVLIDLPVTKQLTALTKAESQLFHRLLHHDYLLNEFRNRAHFKFTTPELQELYQILKTNGEINAYDLSQLSNQLQETYYRVLEENLPEEIAEDEIRQIEDQIDKCLQRQEMRKQSKAIRESSNHGDVDTAVEGLAALIAQKRNME
notes: also called N-DnaG
B3: XseA fused to the RenG C-terminal domain (156-314) (natural protein, S. mutans, UniProt Q8DVB5 1-447, looked up)
chain: MSDYLSVSSLTKYLKLKFDRDPYLERVYLTGQVSNFRRRPNHQYFSLKDEKAVIQATMWSGIYRKLGFELEEGMKINVIGRVQLYEPSGSYSIIIEKAEPDGIGALAVQFEQLKKKLAEAGYFDDRHKQRLSQFVKKIGVVTSPSGAVIRDIITTVSRRFPGVDILLFPTKVQGEGAAQEVADNIRLANERTDLDLLIVGRGGGSIEDLWAFNEEIVVQAIFESHLPIISSVGHETDTTLADFAADRRAATPTAAAELATPVTKADLLAFLKERQMRSYQAVMRLIRQKDEQVKKLQRSVIFRQPERLYDAYVQKLDHLRTHLLTKVRQVYDVYDSKEHLLRQRLLSFNLSGCIQRYQAQLKQDQRLLLSHMSSQYDSKLARFEKAQDALLSLDTTRIVARGYAIVQKDNHIIQSTQQIKKGDRLHLEMKDGQVQVEVENVKQEENI
notes: Exodeoxyribonuclease VII large subunit, XseA; S. mutans UA159; not shown: RenG luciferase C-terminal domain (156-314), C-terminal, kept
B4: ThiI fused to the RenG C-terminal domain (156-314) (natural protein, S. mutans, UniProt Q8DUR1 1-405, looked up)
chain: MQYSEIMVRYGELSTKGKNRMRFINQLKRNMKHVLSIYPEVSIRADRDRAHIYLNGANYVPVAESLKQIFGIQAFSPSYKVEKSVPALEKAVQAIMVELHHEGLTFKISSKRSDHQFELDSRELNQVLGSAVFAVLPDIKAQMNHPNVNLKVEIREEAAYLSYENIKGAGGLPVGTAGKGMLMLSGGIDSPVAGYLALKRGVNIEAVHFASPPYTSPGALKKAQDLTRKLTKFGGNIQFIEVPFTEIQEEIKAKAPEAYLMTLTRRFMMRIADRIREERSGLVIINGESLGQVASQTLESMQAINAVTTTPVIRPVVTMDKLEIIDIAEKIDTFAISIQPFEDCCTIFAPDRPKTNPKIKNVEQYEARLDIEGLVARAVAGINITEITPQEESQDEVDVLIEDLL
notes: tRNA 4-thiouridine(8) synthase, ThiI; S. mutans UA159; also called Thil; not shown: RenG luciferase C-terminal domain (156-314), C-terminal, kept

Biological target: T1, MecA fused to the RenG N-terminal …
Experiment: split reporter (BiFC, NanoBiT)
Details: partners not purified

Row | Binder | relative binding affinity (%)
1 | B1 | 7.86 ± 0.3
2 | B2 | 6.97 ± 0.32
3 | B3 | 3.16 ± 0.25
4 | B4 | 8.92 ± 1.07
